Molecular target: T1, BSA (UniProt P02769 25-607)
T1 construct: also called carrier protein BSA; 3% BSA
Assay: phage ELISA on coated plates, detection with HRP/anti-M13, OD450

T1 sequence (P02769 25-607 limits assumed): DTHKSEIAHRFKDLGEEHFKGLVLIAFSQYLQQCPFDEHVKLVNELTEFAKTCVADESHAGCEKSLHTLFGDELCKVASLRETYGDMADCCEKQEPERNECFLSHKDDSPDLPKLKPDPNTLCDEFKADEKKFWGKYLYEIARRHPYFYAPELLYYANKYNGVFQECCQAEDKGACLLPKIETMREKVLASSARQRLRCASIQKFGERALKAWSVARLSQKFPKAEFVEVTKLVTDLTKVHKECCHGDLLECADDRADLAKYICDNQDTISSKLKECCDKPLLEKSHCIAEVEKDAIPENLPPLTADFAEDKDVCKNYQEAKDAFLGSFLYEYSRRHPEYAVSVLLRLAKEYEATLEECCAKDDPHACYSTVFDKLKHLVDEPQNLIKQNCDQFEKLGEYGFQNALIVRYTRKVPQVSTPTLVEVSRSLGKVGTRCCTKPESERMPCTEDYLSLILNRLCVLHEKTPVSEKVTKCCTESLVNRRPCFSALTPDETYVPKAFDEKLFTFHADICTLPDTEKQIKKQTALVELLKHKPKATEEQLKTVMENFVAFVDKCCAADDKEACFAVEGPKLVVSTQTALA

B1: aflatoxin B1 nanobody 2014AFB-G15 (VHH)
VHH: QLQLVESGGGLVQAGGSLRLSCAASGRTFSSYAMGWFRQAPGKEREFVAAISWSGGSTYYTDSVKGRFTINRDNAKNTVYLQMNSLKPEDTAVYYCAAGFSGNYYRTPDYWGQGTQVTVSS
notes: also called antibody 2014AFB-G15
binding result: no binding (tested: wells coated with 3% BSA)

Reference: patent EP3124498A1 (Oilcrops Research Institute of Chinese Academy of …, dated 2017)
